According to the supplement of paper PMC10065799, “High-throughput profiling of sequence recognition by tyrosine kinases and SH2 domains using bacterial peptide display” (eLife, 2023):

Columns and labels:
[1] = target: MERTK (UniProt Q12866); assay: phosphorylation enrichment, bacterial display (enrichment ratio); higher = better substrate or ligand; peptides without Tyr show the background
[2] = target: FGFR3 (UniProt P22607); assay: as above
[3] = target: Fyn (UniProt P06241); assay: as above
[4] = target: Jak2 (UniProt O60674); assay: as above
[5] = system: c-Abl (mouse); assay: as above
[6] = target: FGFR1 (UniProt P11362); assay: as above
[7] = target: EPHB2 (UniProt P29323); assay: as above
[8] = target: Hck (UniProt P08631); assay: as above
[9] = target: Fes (UniProt P07332); assay: as above
[10] = system: c-Src; assay: as above
[11] = target: EPHB1 (UniProt P54762); assay: as above
[12] = system: Fer (mouse); assay: as above
[13] = system: AncSZ; assay: as above
[14] = target: SHP2-C SH2; assay: SH2 binding enrichment of the phosphorylated peptide, bacterial display (enrichment ratio); higher = better substrate or ligand; peptides without Tyr show the background
[15] = target: Grb2 SH2 (UniProt P62993); assay: as above
[16] = target: c-Src SH2; assay: as above
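Throughout, for SH2 binding enrichment of the phosphorylated peptide, bacterial display: peptide library displayed on the E. coli surface as eCPX fusions, selected cells deep-sequenced, score is each peptide's frequency after selection divided by its frequency in the input.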
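Throughout, for phosphorylation enrichment, bacterial display: 11-residue human phosphosite peptides and single-mutation variants displayed on the E. coli surface, counted by deep sequencing, each peptide's frequency after selection divided by its frequency in the unselected input library; frequency after pTyr selection over input frequency; kinase dosed for 20-30% of maximal phosphorylation in three min.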

Sequence of EPHB2 (P29323 whole entry, looked up): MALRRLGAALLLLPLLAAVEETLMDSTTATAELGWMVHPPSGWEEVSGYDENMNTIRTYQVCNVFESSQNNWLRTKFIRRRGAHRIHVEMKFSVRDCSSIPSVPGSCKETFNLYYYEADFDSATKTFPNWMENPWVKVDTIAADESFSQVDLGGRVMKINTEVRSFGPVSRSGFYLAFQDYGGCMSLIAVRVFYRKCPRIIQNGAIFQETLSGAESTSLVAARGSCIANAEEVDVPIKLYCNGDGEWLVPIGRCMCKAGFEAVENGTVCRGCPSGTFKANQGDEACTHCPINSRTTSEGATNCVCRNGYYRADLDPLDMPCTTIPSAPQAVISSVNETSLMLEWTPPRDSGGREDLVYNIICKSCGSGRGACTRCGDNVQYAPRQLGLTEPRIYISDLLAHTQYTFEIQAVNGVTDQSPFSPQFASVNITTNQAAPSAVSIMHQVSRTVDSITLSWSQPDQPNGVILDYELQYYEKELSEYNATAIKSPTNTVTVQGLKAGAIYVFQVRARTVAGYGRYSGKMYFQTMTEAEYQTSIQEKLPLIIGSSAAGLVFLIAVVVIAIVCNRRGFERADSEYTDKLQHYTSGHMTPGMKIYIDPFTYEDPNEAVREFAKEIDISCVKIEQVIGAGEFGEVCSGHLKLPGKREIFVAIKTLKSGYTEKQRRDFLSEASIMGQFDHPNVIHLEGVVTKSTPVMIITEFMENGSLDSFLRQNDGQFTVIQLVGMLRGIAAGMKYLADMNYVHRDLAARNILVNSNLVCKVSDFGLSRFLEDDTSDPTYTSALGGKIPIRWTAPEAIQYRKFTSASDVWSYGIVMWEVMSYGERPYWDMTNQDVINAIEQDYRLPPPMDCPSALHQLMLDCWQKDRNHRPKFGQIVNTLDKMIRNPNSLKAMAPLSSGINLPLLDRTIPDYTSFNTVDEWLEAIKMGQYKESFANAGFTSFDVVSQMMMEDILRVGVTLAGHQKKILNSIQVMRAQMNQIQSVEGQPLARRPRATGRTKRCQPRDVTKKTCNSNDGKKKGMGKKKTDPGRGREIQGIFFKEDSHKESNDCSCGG
Sequence of Jak2 (O60674 whole entry, looked up): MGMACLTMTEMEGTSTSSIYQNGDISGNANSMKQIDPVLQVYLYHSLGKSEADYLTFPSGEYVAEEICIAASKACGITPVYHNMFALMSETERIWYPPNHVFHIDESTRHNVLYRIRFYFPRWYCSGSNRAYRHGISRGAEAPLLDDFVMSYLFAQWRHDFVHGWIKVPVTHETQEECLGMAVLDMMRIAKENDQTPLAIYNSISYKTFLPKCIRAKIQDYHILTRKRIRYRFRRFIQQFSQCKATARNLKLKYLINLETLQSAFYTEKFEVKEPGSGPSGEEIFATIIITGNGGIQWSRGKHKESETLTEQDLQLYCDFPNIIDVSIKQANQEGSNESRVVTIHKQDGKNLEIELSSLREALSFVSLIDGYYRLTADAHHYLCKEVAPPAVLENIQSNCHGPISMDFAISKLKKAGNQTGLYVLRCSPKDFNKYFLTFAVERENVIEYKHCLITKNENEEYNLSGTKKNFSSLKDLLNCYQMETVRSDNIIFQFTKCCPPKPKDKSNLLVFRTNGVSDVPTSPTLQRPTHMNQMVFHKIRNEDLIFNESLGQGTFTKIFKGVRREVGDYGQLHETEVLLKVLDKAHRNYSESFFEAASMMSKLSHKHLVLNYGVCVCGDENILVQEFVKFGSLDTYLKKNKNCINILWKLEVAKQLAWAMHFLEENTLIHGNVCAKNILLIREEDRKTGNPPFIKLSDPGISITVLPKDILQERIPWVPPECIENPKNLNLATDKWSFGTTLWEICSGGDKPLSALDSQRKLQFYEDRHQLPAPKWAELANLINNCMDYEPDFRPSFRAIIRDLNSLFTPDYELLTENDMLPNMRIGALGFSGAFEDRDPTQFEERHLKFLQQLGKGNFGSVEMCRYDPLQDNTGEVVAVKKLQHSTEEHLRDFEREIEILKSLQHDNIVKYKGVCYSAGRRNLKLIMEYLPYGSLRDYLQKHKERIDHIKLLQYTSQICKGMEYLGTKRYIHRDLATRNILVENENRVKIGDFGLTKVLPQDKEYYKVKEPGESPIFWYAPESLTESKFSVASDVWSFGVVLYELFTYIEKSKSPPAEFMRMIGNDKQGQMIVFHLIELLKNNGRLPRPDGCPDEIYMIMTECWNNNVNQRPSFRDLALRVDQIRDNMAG
Sequence of Fes (P07332 whole entry, looked up): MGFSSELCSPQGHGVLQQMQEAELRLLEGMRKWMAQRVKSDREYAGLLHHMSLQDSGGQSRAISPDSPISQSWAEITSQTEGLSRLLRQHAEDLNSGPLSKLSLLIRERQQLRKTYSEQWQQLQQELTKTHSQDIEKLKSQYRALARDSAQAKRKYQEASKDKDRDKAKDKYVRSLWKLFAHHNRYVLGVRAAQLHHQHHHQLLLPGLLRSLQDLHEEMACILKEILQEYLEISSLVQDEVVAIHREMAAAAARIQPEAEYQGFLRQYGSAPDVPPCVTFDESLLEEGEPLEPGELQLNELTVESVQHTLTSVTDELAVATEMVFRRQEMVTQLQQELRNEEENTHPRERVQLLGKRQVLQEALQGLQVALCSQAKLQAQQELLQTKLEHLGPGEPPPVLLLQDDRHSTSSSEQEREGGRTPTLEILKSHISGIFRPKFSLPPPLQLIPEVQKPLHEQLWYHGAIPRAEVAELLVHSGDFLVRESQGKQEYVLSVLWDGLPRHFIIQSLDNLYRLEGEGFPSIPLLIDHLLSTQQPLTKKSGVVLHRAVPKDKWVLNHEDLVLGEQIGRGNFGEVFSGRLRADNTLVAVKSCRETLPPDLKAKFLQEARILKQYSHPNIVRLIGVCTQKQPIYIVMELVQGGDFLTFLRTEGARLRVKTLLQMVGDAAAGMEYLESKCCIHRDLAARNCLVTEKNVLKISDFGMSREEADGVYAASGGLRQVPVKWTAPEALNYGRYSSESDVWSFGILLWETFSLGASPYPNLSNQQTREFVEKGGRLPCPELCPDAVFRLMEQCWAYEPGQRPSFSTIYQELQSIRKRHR
Sequence of Grb2 SH2 (P62993 whole entry, looked up): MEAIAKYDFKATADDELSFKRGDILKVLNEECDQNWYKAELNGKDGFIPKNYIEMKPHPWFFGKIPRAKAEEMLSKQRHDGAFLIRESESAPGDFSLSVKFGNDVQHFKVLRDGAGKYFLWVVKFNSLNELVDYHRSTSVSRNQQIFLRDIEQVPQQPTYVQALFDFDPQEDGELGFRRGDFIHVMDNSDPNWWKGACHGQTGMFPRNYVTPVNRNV
Sequence of FGFR1 (P11362 whole entry, looked up): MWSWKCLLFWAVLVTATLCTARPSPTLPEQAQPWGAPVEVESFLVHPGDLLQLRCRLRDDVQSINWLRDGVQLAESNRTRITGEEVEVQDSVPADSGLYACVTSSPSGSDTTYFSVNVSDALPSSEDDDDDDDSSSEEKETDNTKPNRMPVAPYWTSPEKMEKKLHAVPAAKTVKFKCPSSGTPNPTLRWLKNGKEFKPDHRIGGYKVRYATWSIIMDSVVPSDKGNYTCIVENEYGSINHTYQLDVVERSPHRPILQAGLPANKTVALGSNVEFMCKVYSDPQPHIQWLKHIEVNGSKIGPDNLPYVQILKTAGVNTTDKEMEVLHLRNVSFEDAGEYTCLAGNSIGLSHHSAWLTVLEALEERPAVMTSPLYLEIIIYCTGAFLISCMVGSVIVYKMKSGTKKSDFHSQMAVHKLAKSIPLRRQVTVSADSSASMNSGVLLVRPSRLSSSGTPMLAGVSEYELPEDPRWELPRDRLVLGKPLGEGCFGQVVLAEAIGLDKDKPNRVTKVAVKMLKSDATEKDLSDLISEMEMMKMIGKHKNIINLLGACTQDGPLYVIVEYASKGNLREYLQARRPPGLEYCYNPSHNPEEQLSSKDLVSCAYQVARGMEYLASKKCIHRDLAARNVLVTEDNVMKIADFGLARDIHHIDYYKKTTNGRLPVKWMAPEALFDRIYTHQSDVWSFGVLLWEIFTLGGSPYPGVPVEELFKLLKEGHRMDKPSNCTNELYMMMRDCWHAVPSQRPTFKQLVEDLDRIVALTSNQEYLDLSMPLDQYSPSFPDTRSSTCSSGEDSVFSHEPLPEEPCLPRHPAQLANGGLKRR
Sequence of Hck (P08631 whole entry, looked up): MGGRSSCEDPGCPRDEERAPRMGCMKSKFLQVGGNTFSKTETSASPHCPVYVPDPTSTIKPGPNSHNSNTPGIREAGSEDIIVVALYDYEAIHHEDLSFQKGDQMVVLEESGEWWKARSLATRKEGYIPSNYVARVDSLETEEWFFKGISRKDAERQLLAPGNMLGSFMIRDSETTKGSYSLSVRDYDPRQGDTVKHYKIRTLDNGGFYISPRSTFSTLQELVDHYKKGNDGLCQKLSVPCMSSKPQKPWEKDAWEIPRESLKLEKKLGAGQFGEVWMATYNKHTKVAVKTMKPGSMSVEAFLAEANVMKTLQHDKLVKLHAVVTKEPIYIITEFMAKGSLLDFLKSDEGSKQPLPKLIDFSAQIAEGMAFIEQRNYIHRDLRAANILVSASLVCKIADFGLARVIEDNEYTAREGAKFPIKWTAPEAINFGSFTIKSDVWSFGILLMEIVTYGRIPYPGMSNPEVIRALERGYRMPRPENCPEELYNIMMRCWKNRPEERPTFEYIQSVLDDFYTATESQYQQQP

Sequence | phosphorylation enrichment [1] | phosphorylation enrichment [2] | phosphorylation enrichment [3] | phosphorylation enrichment [4] | phosphorylation enrichment [5] | phosphorylation enrichment [6] | phosphorylation enrichment [7] | phosphorylation enrichment [8] | phosphorylation enrichment [9] | phosphorylation enrichment [10] | phosphorylation enrichment [11] | phosphorylation enrichment [12] | phosphorylation enrichment [13] | SH2 binding enrichment [14] | SH2 binding enrichment [15] | SH2 binding enrichment [16]
TYEPNYGTVKR [RAPGEF6_Y1447_Q1452R] | 0.868 | 0.43 | 4.41 | 0.604 | 0.656 | 0.391 | 3.31 | 3.66 | 0.614 | 3.06 | 1.34 | 1.65 | 0.567 | 0.785 | 0.803 | 0.589
VATRWYQSPEL [CDKL5_Y177_R178Q] | 0.679 | 0.754 | 0.43 | 0.566 | 0.512 | 0.88 | 0.774 | 0.578 | 0.832 | 0.443 | 0.508 | 0.531 | 1 | 0.955 | 0.983 | 1.16
VATRWYWSPEL [CDKL5_Y177_R178W] | 6.3 | 5.13 | 0.464 | 1.14 | 0.771 | 5.92 | 3.81 | 0.532 | 1.15 | 0.647 | 4.61 | 0.512 | 1.06 | 0.731 | 0.971 | 1.94
VCDSDYSASRW [LRP5_Y1552] | 0.382 | 0.684 | 0.603 | 0.731 | 0.737 | 0.449 | 0.877 | 0.518 | 1.02 | 0.518 | 0.691 | 0.455 | 1.16 | 0.697 | 0.979 | 0.586
VDLIVYLRTNP [TK2_Y181] | 0.328 | 0.711 | 0.434 | 1.06 | 0.875 | 0.358 | 0.589 | 0.352 | 1.26 | 0.364 | 0.65 | 0.432 | 1.12 | 0.623 | 0.709 | 0.468
VEFAKYGSLQG [RET_Y809_R813Q_YF] | 0.384 | 0.578 | 0.556 | 0.846 | 0.619 | 0.43 | 0.471 | 0.741 | 0.9 | 0.546 | 0.536 | 0.44 | 0.663 | 0.803 | 0.745 | 0.382
VGTKRYMALEV [ACVRL1_Y375_P378L] | 0.448 | 0.541 | 0.429 | 0.557 | 0.709 | 0.472 | 0.451 | 0.458 | 0.75 | 0.486 | 0.549 | 0.418 | 0.691 | 0.805 | 0.977 | 0.813
VGTKRYMAPDV [ACVRL1_Y375_E379D] | 0.277 | 0.412 | 0.306 | 0.415 | 0.494 | 0.296 | 0.402 | 0.334 | 0.491 | 0.293 | 0.42 | 0.35 | 0.424 | 0.522 | 0.573 | 0.496
VGTKRYMAPEV [ACVRL1_Y375] | 0.389 | 0.446 | 0.361 | 0.637 | 0.532 | 0.413 | 0.428 | 0.407 | 0.61 | 0.373 | 0.351 | 0.395 | 0.611 | 0.616 | 0.804 | 0.511
VHNLDYYKQTT [FGFR3_Y647_K650Q] | 0.607 | 1.34 | 0.586 | 0.945 | 0.555 | 1.36 | 0.617 | 0.485 | 0.955 | 0.697 | 0.686 | 0.525 | 0.934 | 0.752 | 0.984 | 0.49
VIESSYTSADG [DHCR7_Y382_C380S] | 0.596 | 0.627 | 0.551 | 0.873 | 0.618 | 0.531 | 0.596 | 0.476 | 0.961 | 0.546 | 0.468 | 0.519 | 0.892 | 0.861 | 0.894 | 4.23
VILARYGPAWR [CYP2D6_Y124_F120I] | 0.482 | 0.608 | 0.527 | 0.808 | 0.603 | 0.608 | 0.614 | 0.602 | 1.09 | 0.503 | 0.513 | 0.407 | 1.09 | 0.547 | 0.828 | 0.385
VKANTYEKFWP [GATM_Y100_YF] | 1.8 | 0.487 | 1.47 | 0.717 | 0.704 | 0.317 | 0.374 | 1.07 | 0.793 | 2.69 | 0.74 | 0.595 | 0.627 | 0.569 | 0.931 | 0.946
VKKNRYKDILP [PTPN12_Y64] | 0.592 | 0.769 | 0.466 | 0.839 | 0.874 | 0.519 | 0.471 | 0.507 | 0.988 | 0.653 | 0.47 | 0.511 | 0.709 | 0.704 | 0.753 | 0.766
VKRNRYKDILP [PTPN12_Y64_K61R] | 0.553 | 0.47 | 0.689 | 0.528 | 0.514 | 0.463 | 0.695 | 0.579 | 0.561 | 0.628 | 0.575 | 0.49 | 0.65 | 0.364 | 0.541 | 0.483
VLRRVYVDFEG [KMT2B_Y1707] | 0.435 | 0.613 | 0.472 | 0.774 | 0.629 | 0.478 | 0.518 | 0.502 | 0.909 | 0.602 | 0.424 | 0.403 | 0.842 | 0.884 | 1.08 | 1.41
VLTPKYRGGGG [HBA1_Y141_S139P] | 0.35 | 0.413 | 0.363 | 0.335 | 0.421 | 0.348 | 0.372 | 0.32 | 0.464 | 0.34 | 0.328 | 0.364 | 0.498 | 0.691 | 1.03 | 0.557

Sequence | phosphorylation enrichment [1] | phosphorylation enrichment [2] | phosphorylation enrichment [3] | phosphorylation enrichment [4] | phosphorylation enrichment [5] | phosphorylation enrichment [6] | phosphorylation enrichment [7] | phosphorylation enrichment [8] | phosphorylation enrichment [9] | phosphorylation enrichment [10] | phosphorylation enrichment [11] | phosphorylation enrichment [12] | phosphorylation enrichment [13] | SH2 binding enrichment [14] | SH2 binding enrichment [15] | SH2 binding enrichment [16]
VLTSKYHGGGG [HBA1_Y141_R142H] | 0.494 | 0.304 | 0.364 | 0.509 | 0.617 | 0.772 | 0.365 | 0.391 | 0.549 | 0.407 | 0.336 | 0.315 | 0.475 | 0.715 | 0.835 | 0.522
VNFDDYTVNLG [GFPT1_Y367] | 0.487 | 0.741 | 0.833 | 1.39 | 0.69 | 0.705 | 0.691 | 0.528 | 1.2 | 1.19 | 0.787 | 0.493 | 1.39 | 0.715 | 0.651 | 0.408
VNFGAYINFFK [GLB1_Y488_D491Y_YF] | 0.57 | 0.963 | 0.441 | 1.87 | 1.49 | 0.663 | 0.558 | 0.495 | 1.75 | 0.717 | 0.586 | 0.624 | 1.38 | 0.784 | 0.918 | 0.611
VNKLVYENING [FRS2_Y306] | 1.64 | 0.454 | 0.95 | 0.539 | 0.524 | 0.52 | 0.75 | 2.67 | 0.8 | 1.78 | 4.71 | 3.63 | 0.665 | 2.03 | 23.9 | 6.33
VPVDGYISGLL [PAK6_Y81_M76V] | 0.602 | 0.656 | 0.519 | 1.18 | 0.745 | 0.568 | 0.85 | 0.542 | 1.01 | 0.657 | 0.75 | 0.559 | 0.911 | 0.568 | 0.893 | 0.573
VPVNGYQPVTA [ROR2_Y824_P828T] | 0.392 | 0.535 | 0.541 | 0.494 | 0.516 | 0.375 | 0.414 | 0.348 | 0.535 | 0.309 | 0.392 | 0.336 | 0.492 | 0.635 | 0.846 | 0.6
VQDPAYLRDID [OPRK1_Y369] | 0.468 | 0.708 | 0.425 | 1.24 | 0.905 | 0.533 | 0.657 | 0.567 | 1.13 | 0.425 | 0.45 | 0.465 | 1.16 | 1.04 | 1.14 | 0.564
VSYDEYRYRSV [CFTR_Y515] | 0.428 | 0.484 | 0.633 | 0.71 | 0.667 | 0.455 | 0.417 | 0.586 | 0.942 | 0.743 | 0.485 | 0.381 | 0.754 | 0.822 | 0.978 | 1.45
VTAALYGCLYE [BTD_Y536_R538C] | 2.11 | 0.825 | 5.14 | 1.24 | 0.954 | 0.558 | 1.47 | 4.01 | 1.43 | 4.26 | 1.34 | 2.67 | 1.34 | 0.564 | 0.729 | 0.547
VTHKEYFIFLE [CAMKV_Y95_R92H] | 0.516 | 1.87 | 0.623 | 1.29 | 0.755 | 2.2 | 1.36 | 0.54 | 1.36 | 1.29 | 1.13 | 0.596 | 1.08 | 1.98 | 1.78 | 1.32
VTVLDYDKTGK [SYT1_Y365_I368T] | 0.335 | 0.439 | 0.442 | 0.517 | 0.452 | 0.463 | 0.46 | 0.426 | 0.712 | 0.398 | 0.365 | 0.411 | 0.591 | 0.511 | 0.737 | 0.408
VVEYGYEFFAK [PPP1CB_Y254_D252Y] | 0.601 | 0.995 | 0.609 | 1.47 | 1.09 | 0.762 | 0.82 | 0.72 | 1.56 | 0.719 | 0.798 | 0.835 | 2.57 | 0.675 | 0.942 | 0.946
VVIMLYGVDSR [PKD1_Y3143_G3139V] | 0.399 | 0.924 | 0.592 | 1.35 | 1.04 | 0.545 | 0.72 | 0.594 | 1.57 | 0.524 | 0.879 | 0.682 | 1.29 | 0.826 | 0.981 | 0.645
VVLVSYVPSSQ [SH2B1_Y624] | 0.424 | 0.703 | 0.452 | 0.751 | 0.614 | 0.506 | 0.454 | 0.433 | 0.874 | 0.336 | 0.557 | 0.388 | 0.784 | 1.4 | 1.51 | 0.95
VYAADYYKLLG [ROR2_Y645] | 5.31 | 10.1 | 1.01 | 7.96 | 1.99 | 12.8 | 1.78 | 1.28 | 0.944 | 2.26 | 2.38 | 0.516 | 1.28 | 0.46 | 0.981 | 0.789
VYYYSYLLKNH [PTEN_Y180] | 3.89 | 3.68 | 1.12 | 2.14 | 2.84 | 4.67 | 1.07 | 1.74 | 1.33 | 1.63 | 1.72 | 0.82 | 1.48 | 0.941 | 0.965 | 0.847
